Data taken from publication PMC3792889.

Target: Growth factor receptor protein binding protein 2 (Grb2), endogenous (mouse (endogenous in STHdhQ7/7, STHdhQ111/111 and Neuro2A cells)) (UniProt Q60631)
Experiment: co-IP; extracts of Neuro2A cells transfected with 23Q or 145Q Httex1 GFP; precipitated with anti-Grb2 antibody and Protein A/G beads; blot with anti-GFP; densitometry, n=3

UniProt Q60631, sequence (Q60631 whole entry): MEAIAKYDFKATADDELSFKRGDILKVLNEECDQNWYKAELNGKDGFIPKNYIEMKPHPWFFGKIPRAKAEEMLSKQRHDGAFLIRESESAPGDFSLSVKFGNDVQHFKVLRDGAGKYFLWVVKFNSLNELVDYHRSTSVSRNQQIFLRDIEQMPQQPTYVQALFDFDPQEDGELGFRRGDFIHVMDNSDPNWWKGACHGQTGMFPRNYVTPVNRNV

- fold precipitation against 23Q Httex1 GFP: 2 fold
Substance: 145Q Htt exon1 GFP (domain or fragment)
